From patent US20200347144A1 (SHANGHAI HYAMAB BIOTECH, published 2020)

Assays:
[1] = molecular target: T1, hFc-tagged human 4-1BB extracellular domain protein (4-1BB-hFc) (human, UniProt Q07011 24-186, limits assumed); assay: ELISA, coated human 4-1BB-hFc; Ab 0.0006 ug/ml
T1 construct: also called immunogen A; 4-1BB^ECD-hFc; not shown: human IgG Fc fragment (hFc) of the pCpC vector
Description: (§1) The purified immunogen A (4-1BB-hFc), monkey 4-1BB-his, and mouse 4-1BB-his obtained in Example 1 [for the preparation method, see step 1 of Example 1, preparation of immunogen A], of which the extracellular domain of monkey-derived 4-1BB protein (purchased from ACRO biosystems), the extracellular domain of mouse 4-1BB protein (purchased from sino biological) or other immune detection point proteins respectively were diluted with PBS to a final concentration of 1.0 μg/mL, then added with […] per well to 96-well ELISA plate. It was sealed with plastic film and incubated at 4° C. overnight. The next day, the plate was washed twice with the plate-washing solution [PBS containing 0.01% (v/v) Tween20] and blocking solution [PBS containing 0.01% (v/v) Tween 20 and 1% (v/v) BSA] was added and blocked at room temperature for 2 hours. The blocking solution was discarded and 100 μl of the purified 4-1BB antibody obtained in Example 2 was added per well. After incubated at 37° C. for 2 hours, the plate was washed 3 times with a plate-washing solution [PBS containing 0.01% (v/v) Tween20]. A secondary antibody (purchased from Sigma) labeled with HRP (horseradish peroxidase) was added, and after incubated at 37° C. for 2 hours, the plate was washed 3 times with a plate-washing solution [PBS containing 0.01% (v/v) Tween20]. 100 μl of TMB substrate was added per well. After incubated for 30 minutes at room temperature, 100 μl of stop buffer (1.0N HCl) was added per well. The A450 nm values were read using an ELISA plate reader (SpectraMax 384plus, Molecular Device).

[2] = molecular target: T2, human 4-1BB, full length, on transfected cells (human, UniProt Q07011 24-255); assay: FACS, CHOK1-h4-1BB cells; Ab 10 ug/ml
T2 construct: whole, on cells; also called CHOK1-h4-1BB
Method in brief: (§2)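 CHOK1 stable lines expressing human or monkey 4-1BB were detached with enzyme-free Versene, blocked in 1% goat serum on ice for 30 min and resuspended at 2×10⁶ cells/mL in HBSS with 1% BSA. Purified antibody was bound on ice for 2 h, then cells were fixed in 4% paraformaldehyde and analysed by flow cytometry.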

[3] = molecular target: T2, human 4-1BB, full length, on …; assay: FACS, CHOK1-h4-1BB cells; Ab 0.00013 ug/ml
Method in brief: as §2

[4] = molecular target: T3, monkey 4-1BB on CHOK1 cells (monkey); assay: FACS, CHOK1-c4-1BB cells; Ab 0.016 ug/ml
T3 construct: whole, on cells; also called CHOK1-c4-1BB
Method in brief: as §2

[5] = molecular target: T1, hFc-tagged human 4-1BB extracellular …; assay: ELISA, coated human 4-1BB-hFc; Ab 0.4 ug/ml
Description: as §1

[6] = molecular target: T1, hFc-tagged human 4-1BB extracellular …; assay: ELISA, coated human 4-1BB-hFc; Ab 0.0032 ug/ml
Description: as §1

[7] = molecular target: T3, monkey 4-1BB on CHOK1 cells; assay: FACS, CHOK1-c4-1BB cells; Ab 0.0032 ug/ml
Method in brief: as §2

[8] = molecular target: T2, human 4-1BB, full length, on …; assay: FACS, CHOK1-h4-1BB cells; Ab 0.4 ug/ml
Method in brief: as §2

[9] = molecular target: T2, human 4-1BB, full length, on …; assay: FACS, CHOK1-h4-1BB cells; Ab 0.08 ug/ml
Method in brief: as §2

[10] = molecular target: T2, human 4-1BB, full length, on …; assay: FACS, CHOK1-h4-1BB cells; Ab 0.016 ug/ml
Method in brief: as §2

[11] = molecular target: T2, human 4-1BB, full length, on …; assay: FACS, CHOK1-h4-1BB cells; Ab 2 ug/ml
Method in brief: as §2

[12] = molecular target: T3, monkey 4-1BB on CHOK1 cells; assay: FACS, CHOK1-c4-1BB cells; Ab 0.4 ug/ml
Method in brief: as §2

[13] = molecular target: T2, human 4-1BB, full length, on …; assay: FACS, CHOK1-h4-1BB cells; Ab 0.00064 ug/ml
Method in brief: as §2

[14] = molecular target: T3, monkey 4-1BB on CHOK1 cells; assay: FACS, CHOK1-c4-1BB cells; Ab 10 ug/ml
Method in brief: as §2

T2 sequence (Q07011 24-255): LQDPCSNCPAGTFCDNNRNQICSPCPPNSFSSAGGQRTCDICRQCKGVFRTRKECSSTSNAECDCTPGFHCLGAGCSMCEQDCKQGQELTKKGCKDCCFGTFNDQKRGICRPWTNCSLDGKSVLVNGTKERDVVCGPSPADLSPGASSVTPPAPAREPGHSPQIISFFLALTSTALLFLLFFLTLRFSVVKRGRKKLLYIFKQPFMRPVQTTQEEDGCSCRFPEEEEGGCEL

OD450 nm [1]: 0.19 OD450 nm
average fluorescence intensity [2]: 532 MFI
average fluorescence intensity [3]: 4.2 MFI
average fluorescence intensity [4]: 37.3 MFI
OD450 nm [5]: 3.55 OD450 nm
OD450 nm [6]: 0.52 OD450 nm
average fluorescence intensity [7]: 12 MFI
average fluorescence intensity [8]: 492 MFI
average fluorescence intensity [9]: 322 MFI
average fluorescence intensity [10]: 98.2 MFI
average fluorescence intensity [11]: 521 MFI
average fluorescence intensity [12]: 359 MFI
average fluorescence intensity [13]: 9.3 MFI
average fluorescence intensity [14]: 550 MFI
B1: 15G10D4 (antibody, V domains shown)
VH: QVQLVESGGGVVQPGRSLRLSCAASGFSFSSYAMHWVRQAPGKGLEWVAIIWYDGSNQYYADSVKGRFTISRDNSKNTLYLQMNSLRAEDTAVYYCARVKQWLVSYFDYWGQGTLVTVSS
VL: EIVMTQSPATLSVSPGERATLSCRASQSVSSNLAWYQQKPGQVPRLLIYGASTRATGIPARFSGSGSGTEFSLIISSLQSEDFAVYYCQQYNNWPTFGGGTKVEIK
